# Laboratory results: the domain aggregation screens of Martell et al. (2025)
# Test: soluble fraction after stress (log2 fold change); higher = more stays soluble; pooled small domains, quantitative proteomics
# Settings: stress: pH 4
# Summary of the method: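 How much of each domain stays soluble after acid stress, expressed as a fold change, is used to gauge aggregation propensity. Pooled custom libraries of small domains underwent pH 4 stress before high-throughput quantitative proteomics. A higher log2 value means more of the domain stayed soluble.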
row,Sequence,soluble fraction (log2)
1,HMSNGEWQQGSDGRWWYKFSDGTYPKNKVETIGGKKYGFDSEGWMLANTTKEFSGTTYSFGADGVATS,-0.0709
2,HMSNHYETLGVEQTASVDEIKKAYRRLSLQYHPDRNTTSDAVGKFQKINDAHEILSDKQSRTEYDMQLK,0.0857
3,HMSNIQLAANLQRLRKDHHFTQTQFSKKLNISRQAYSNYETGKRIPDLDIIIRIANIYHISLENLL,-0.203
4,HMSNKYYETILDWFKSQIMSGELKEGDTIPSERELATRFGVSRVPVREALRILEYIGIVSNTADGMTVQKV,-0.976
5,HMSNLKKRRLEKNLTLDDVGKLVGVSAATISRWESGDIENMRSDKIVKLANALEISPAVILGW,-0.641
6,HMSNLLKNILDVLEKEGPLKARKIALLLDSTRTTITHTTINSELYKALDLEGLTKNEQNIWSYVT,-0.389
7,HMSNLVEVPAVIGRMKEDAITMLISAGLEPAVTYDEYPLVKENLVADQSVAPGQKVEKGSFVTITVSRS,0.22
8,HMSNMESLIGREATVIEMIPAEDVGRVKIDGDEWQAVLAREDDNEPRRDIQVGEKVIIVSYDSIILTVKTK,-1.02
9,HMSNNENSILEKLNSFSGKKIKVSHTIGSLAARLDEYPKIKMWLYKRIRENSINEQAYKYLIFIIERKVR,-0.0495
10,HMSNPADDVVDLLRQLRLPHMRAAAPELLATAKAQRWDPAEAIRALLTEELAGRQASSINARRK,-0.226
11,HMSNPPIRIGKKALHELLTTWLSLLSRDGVAYLVVQKNLGADSLTAWLRDQGFPSEKIASKKGFRIIEVH,0.0506
12,HMSNRDNPVVLDFKKVKSTEQLDNILEEYIRENFEGYTVKGRMFSSDEGKFIIALALKDDDGKRALVYFDV,-1.06
13,HMSNRIDKIKLNHWLNIRKTSLDVLNNLLSKHLNHKINFENLENLDEQAIEKISEVLSIPKNKLLINDDVP,-0.226
14,HMSNTVEDLIDDIGTVTKDSKDKIDAARKAYDGLTEDQKKLVPDSVLKTLTDAEAAYAKLTK,0.191
15,HMSNWYGTVVKIQPRPNAQAADTAVVKLLDGSEHRFPVWADHLTTIEVGSRLKKLSGGWDPVLMDPEETF,-0.573
16,HMSNWYKNNETDQIWWKDTPDSVGEWLFSFDKKQVFNMFADYPHNLTPEQKKIFDEENPEWSDRP,-0.981
17,HMSNYPYLLRTYEGKLAVFTDDLVQPDLVFDVYVRTLPELDQQQLSRGIRVKTYDELTSMIEDYI,-0.956
18,HMSPAVEDYLEQIHNLIAQKGYARVVDIAGNLKISQASVTNMIQRMDADGLVVYERYRGVVLTETGRK,-0.456
19,HMSPDLNEVEEKVFRALNGVESMHVNKLGIELNLPVSELFFTLLELEMKNVVKALPGGMYKL,-1.1
20,HMSPFYILDEVEAALDDTNLGRLLEIYEELRENSQLLVITHQKRTMEVGDALYGVTMRGDGVSAVISQRLR,-1.74
21,HMSPKYLELVRWINTQIQEKKLTAGQKMYSENELKEMFGVSRQTVRHAISVLEGEGMIRRVRGSGTYINDN,-0.043
22,HMSPLALLTPRELDILRAMTAGASNKEIARQFAIAETTVKIHVQHILRKLDVTTRVHAAVMASESGL,-1.09
23,HMSPPALAVQRDGSNVQISWPGAEEGWRLESSAEPSGAAWDLIAQNPTPVGGRWTVSLTEPTGRRFYRLVK,0.039
24,HMSPSLVEAMRLRMYEMGLNQAKLSELLGVSPSRVSDYLTGRSEPTLKVARDISRKLNIDASIVLG,-0.0682
25,HMSPSQFRSKSLLVEINFASRQMDGEILQGDYAGKRLSELTEAEVQELTAWLKQSDRESFVLLQAYLLRSG,-1.17

row,Sequence,soluble fraction (log2)
1,HMSPSSPNQILGQYPKTKNDIILSSGRYGPYLKYNKKNYSLGNNISVEKLSLEEAVKIIDLKDKK,0.0926
2,HMSPTDKATVNVYALNVRTGPGTNYKVLGSVIKGTELQVLGSSGKWLKVKYGNREAYVAGWLVK,0.118
3,HMSPTEQEKIGLFIKKLREEKNLTQEAFASLLKTSQSAVARIESGNQNITIEQLMKIGEVLNHNIVSI,-0.215
4,HMSQDPLETYYPQWSAAVKQSNPDAEIIRDTDGKYYVEGMTKNRVAVIYENPHLVRLVNATTNVHVE,0.238
5,HMSQDTLIGRVGVIVIGQARTGSPAQVRVKDGFGQTHYVMAEPDSEGVLKQGEAVLLVSLEGNTFKAILNP,≥ 0.43
6,HMSQDVLLKRSGDQIEVKITEVGEDYLKYKKKGFENGPDFKINTSDVFMVTFANGEKMMFEES,-2.15
7,HMSQEAKLAMPVTDLRLSARTLNALELANIRTVRDLVSHTEEQLLELRNFGETALAEVKEKLAALGLRLGM,-0.436
8,HMSQESIMPNLVGSTEDEAKAIAVEYGFQLNVISRVNNSQYPAGVIIDQNVDEGVRIKAGYPVGVTIS,-0.0416
9,HMSQIAENNQKYVGTIQKVLVEGTSKNNDDMLTGRTDSNKVVIFEGDKKLIGNMVELKIVSEHMWYLKGEL,-0.0811
10,HMSQISKLWRPSEDVTEILTRSGMDSEFLEGLIPEFIIYWSERADVLVSYNSKFIEHARLKWAQHSAEIKT,-1.94
11,HMSQLLHELLAHVLKDRIISGEWPAGSRIMSEHALQERYGVSRGTVRRALAQLVQEGLLVQRKGKGTFVTR,0.35
12,HMSQLVTGVLRNLNDISEKIAAGKAVPEMLGRLENMQQMIANLKGNEGLIKSISILTRSAQDALR,-0.0398
13,HMSQPLYWQIRRMVIDHDDANDVLQNTFIKAWSNIGSFRGDAKFSTWLYKIAVNESITFINKKKVQN,-0.0472
14,HMSQPYFELAAADMEALRNALSTIREIESVVLSGKIFHVEVREDLDPGTMNKLAFERGITLTHLVKKKN,-1.06
15,HMSQRINLNSASIEDMQSLDISNEKIDSIIDYRNRYGNIHNIYELLKIPGITIGDIHSIRNAVTVEIPH,-0.472
16,HMSQSLSGWAAKDLEVKSGADASYRTVGRLPKGSKVSGKIINGYLHIEFDGSMRYVPVSGISKTE,0.156
17,HMSQSYHLADRGQSLGTLDYQAVLVGLATGRLSPDTLSWQEGEAGWVALRQRPEFASGVSAVASL,-0.753
18,HMSRAHTELEEKLLTMLEENDMTLPMRVISNIASRIEGIIIPEEKILEVLKKSYDRYREHQMD,-0.784
19,HMSRARSRQTSMLEAVAGLGPARRRALLKQFGGLQGVLRAGIEDLSRAPGIGPALAQAIFEHLHPGA,-0.0797
20,HMSREQARRFYFDTWAKHRASQPLTDLEKIALTVMLLHPEYHSLLDKPDHYVDKDYSPEAGQTNPFLHM,-0.474
21,HMSRIDRKGLTSQIVNHLSKNPGKNFTLKQFFRNLKLNTHPLKMLAVDVLNKLLDTNFITRNEDGEFFLKA,-0.123
22,HMSRLMIVTPDGRIMDDVPEFGEVRTTTDVNGRVLVLDRNNVVIGFEMTPREYRREFGRNPF,0.0337
23,HMSRQAPIGHRIRGRRKDIGMTQNALAKAAGISPSYLNLIEHNRRSIGGGLLMRIAAILDIHPHTL,0.0837
24,HMSRTLLVYVTGAVRQPGVYELPEGSRFFDAVKAAGDVLPYAVMEDINMAEPLSDGMKIHIPLDPEQ,-1.01
25,HMSRVFSPSELEIRHAQDVFQALEEAKRQGKGAVSLNGKMIDAPIVARAKLVLEAAAAIYGED,-0.202

row,Sequence,soluble fraction (log2)
1,HMSRVHHGFNISIARNRKGLKQAALADMLGISQQRLSQLENQRVVKDEILEKVSEATGVSVEDLKTIE,0.171
2,HMSRVSVDGEEVNFEGEIPDDPSRIYELLMGALSEQSRVVVKFFVDGKDALLDEGFPSRYQMIEAESV,-0.733
3,HMSRYAFEGNVVRLNQKDFDSWKALFTNIDLVSELTRLDIEFTHDKPKNWFSTASAKLNYQNKNAY,-0.903
4,HMSRYLLPYAFARTQQVLLEEKSGELTLWMHSGSNLGGISEVTRKYAVQHVTHEPMDALLNRISSAYAN,-2.03
5,HMSSAVKRALAELPENWRMIVYYRVVEGLSYAEIAKVLDIPDGSVMSGLHRGKKMLRGLLLEYAQQEGYD,-0.74
6,HMSSDDEAFKRELVGLIPHLRAFARTLTGDPTAADDLAQDAMMKAWDARASYQMGTNMKAWTFMILRNQFY,-1.65
7,HMSSDKVWSFEASGKQLQASYVAFENETVYLRASEDGSLLQFPLTDFGMKDQLVVLELYELSAKINRSN,-0.779
8,HMSSDLSNVVKIIDTLKHKKGALLPILHQIQREIGYIPLKTIDTIAKKLQQTPAEIHGVISFYHQFRTS,0.22
9,HMSSEASALRGWLQTSQYQGSVTLFANALNVPLKTVEDWVYGRSKPSLQHWSQLYEATGLPEYQQ,0.0888
10,HMSSFRDISGTVYVKASAANLRSEPNTSSLIVDTLYYGASLQRISTNDIWTKVKTGNGQIGFMDNSLFQT,≥ 0.43
11,HMSSGSLLTEREIEILAEMAKGLTNKAIGEKLFISVATVKTHILNIYRKLEVSSRVTAVNKAKQMRL,-0.11
12,HMSSGTAYATDAVNVRSGPGTSYTVLGYLSRGEKVTITGTVSNGWTQIQLPGNRLGYVSSAYLSASYPS,-0.115
13,HMSSHNIALDQDVVVTQLKGKVYLVAADGSQKQLAEGDILPKDAVLITPEGASFKGGNQTFTLS,-0.235
14,HMSSIFTRIIAGEIPSYKVAEDENYYAFLDINPLTKGHTLVVPKMEVDYIFDLDDKTLAGMMLFAKKG,-0.455
15,HMSSKIKYSEFITMLDKGEVESVVLKSDTLTITLKHGTGVAAQTKTTTLMEDLSELTKRLEKAGIKDFDK,0.22
16,HMSSLDTLTARETQILAEMAQGKNNAAIAAAVSVSERAVEKHTNSIFAKLGLSEEKDVNRRVMAVLLFLGR,-1.5
17,HMSSLEQVYPNPVSSILKLNSFIKNYKILNATGHEVLKGSGNTINVGKLPSGSYFLITSENYSIKFIK,0.119
18,HMSSLSGVRRTLLDSLGMPPDASDEELADRREELRGSLDTAPQARRKWIEQQLARIDAITALDASG,-0.0243
19,HMSSPEAAEVQRLLKDGQHVQALKIIDESLARNPKDPQMRFRRGVALSMLDRKNEALAVFQKLVED,-0.0849
20,HMSSPRAIYSAIQKAVGEDMILYREDVQIILDKLDADLLVDDILEKMELDGTLVRQRDGTWLLL,-1.01
21,HMSSQVFLGQKNSIAKYDLNENKPIWTKEIKGTPLILSTWKDMLLIQIQTWVSYTHMLVKQENGQTVWE,0.282
22,HMSSRLEIEITSKIDDLSHTWRAVGAKQPKGNIKSSLLPSGVKVGETFRVEADFLLDGIEIVSVLPP,-1.52
23,HMSSSLDQLTVREREILAQVSRGLSNKAIARELGISHDTVKLHVRHILSKLGFSSRVEAAVFAIEHRIG,-0.481
24,HMSSSMDAIAEIIRSIPRGDHLTAPEVYELAKQRGLKLSLSTVYRTLNKLKVVGDVITVSGDRGLRYESV,0.215
25,HMSSTPEPPQAVLDLVNLREQARAGKDWTQSDAFRQQIAALGWTVKDTKDGPVVSLSPTTTE,0.105
